Experimental data published in paper PMC10511320, “R-loop-dependent promoter-proximal termination ensures genome stability”.

Columns and labels:
SSB1 [1] = target: T1, SSB1 (human, UniProt Q9BQ15 1-211); experiment: EMSA; ED Fig. 2a ssDNA taken as (dT)48, the only listed ssDNA oligo; EMSA: 100 nM Cy3 probe, 20 mM Tris-HCl pH 7.5, 50 mM NaCl, 5 mM MgCl2, 0.2 mM EDTA, 1 mM DTT, on ice 30 min; 6% native PAGE, 0.5x TBE, cold room; settings: protein: recombinant; label: 3' Cy3
SSB1 [2] = target: T1, SSB1; experiment: EMSA; EMSA: 100 nM Cy3 probe, 20 mM Tris-HCl pH 7.5, 50 mM NaCl, 5 mM MgCl2, 0.2 mM EDTA, 1 mM DTT, on ice 30 min; 6% native PAGE, 0.5x TBE, cold room; settings: protein: recombinant; blunt

T1 sequence (Q9BQ15 whole entry): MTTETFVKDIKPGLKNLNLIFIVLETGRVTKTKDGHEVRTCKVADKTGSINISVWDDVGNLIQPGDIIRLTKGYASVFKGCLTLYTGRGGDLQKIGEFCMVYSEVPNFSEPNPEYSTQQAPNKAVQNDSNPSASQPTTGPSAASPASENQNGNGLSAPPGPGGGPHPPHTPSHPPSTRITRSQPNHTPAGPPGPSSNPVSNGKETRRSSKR

Q: Does TTTTTTTTTTTTTTTTTTTTTTTTTTTTTTTTTTTTTTTTTTTTTTTT (ssDNA) [oligo (dT)48] bind (SSB1 [1])?
A: binds

B1: Blunt-end dsDNA (30 bp) random (dsDNA)
DNA 1: GAGCTACCAGCTACCCCGTATGTCAGAGAG
DNA 2: CTCTCTGACATACGGGGTAGCTGGTAGCTC
Q: Does B1 bind (SSB1 [2])?
A: no binding
